From FireProtDB (doi:10.1002/pro.342) come the findings set out here.

For this series the following is noted: Escherichia coli, pH 6.3, CD, Phosphate 50 mM, NaCl 300 mM, whole UniProt chain shown.

B1: Regulatory protein rop wild type, P03051 (protein)
chain: MTKQEKTALNMARFIRSQTLTLLEKLNELDADEQADICESLHDHADELYRSCLARFGDDGENL
Consider B1, for which, where the note is “Thermal”, the Tm came to 70 °C, the “heat capacity change of unfolding” value is 1.1 kcal/mol/K and the “unfolding enthalpy (van 't Hoff)” value came out at 65 kcal/mol. Also, where the note is “Urea”, the denaturant m value was 2.1 kcal/mol/M, the “denaturant midpoint (higher = more stable)” value came to 4.6 M and the unfolding free energy was 16 kcal/mol.

Broadly, the Tm is the temperature at the midpoint of the melting transition.
